B1: anti-CD5 antibody 5D7 hIgG1 (humanized version of murine antibody 5D7) (antibody, V domains shown)
VH: QVTLKESGPVLVKPTETLTLTCTFSGFSLSTSGMGVGWIRQAPGKGLEWVAHIWWDDDVYYNPSLKSRLTITKDASKDQVSLKLSSVTAADTAVYYCVRRRATGTGFDYWGQGTLVTVSS
VL: NIVMTQSPSSLSASVGDRVTITCQASQDVGTAVAWYQQKPDQSPKLLIYWTSTRHTGVPDRFTGSGSGTDFTLTISSLQPEDIATYFCHQYNSYNTFGSGTKLEIK

Experiments:
[1] = molecular target: human CD5 on cells (MOLT-4 human T lymphoblast cells; primary human T-cells) (human) (UniProt P06127); assay: flow cytometry on MOLT-4 cells, anti-mouse AF488 secondary, 4 C
[2] = molecular target: human CD5 on cells (MOLT-4 human T lymphoblast cells; primary human T-cells) (human) (UniProt P06127); assay: flow cytometry on primary human T-cells, AF488 secondary, antibody titration at 37 C
[3] = molecular target: purified human CD5 ectodomain (human) (UniProt P06127); assay: BLI (Octet Red96), antibody on anti-human Fc biosensors, 50 nM CD5 ectodomain, 25 C

Row | EC50 [1] | EC50 [2] | Kd [3] | Response [3] | koff [3] | kon [3] | Molecule
1 | 0.043 nM |  |  |  |  |  | murine anti-CD5 antibody CRIS-1 (Novus Biologicals)
2 | 0.354 nM |  |  |  |  |  | murine anti-CD5 antibody UCHT2 (BioLegend)
3 |  | 3 pM | 0.141 nM | 0.67 nm | 3.36e-05 s⁻¹ | 239000 M⁻¹ s⁻¹ | B1

Source: US20200276326A1
